Ends that are not written are not given here.
What was measured:
[1] = target: T1, PACAP38 peptide fragment 6-35 (human); experiment: SPR (Biacore 3000), solution competition with the peptide for antibody binding to immobilised full-length PACAP38; % inhibition
T1 construct: also called peptide No. 4
T1 peptide: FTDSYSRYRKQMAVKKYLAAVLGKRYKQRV

[2] = target: T2, PACAP38 peptide fragment 4-27 (human); experiment: as above
T2 construct: also called peptide No. 9
T2 peptide: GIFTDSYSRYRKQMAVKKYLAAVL

[3] = target: T3, PACAP38 peptide fragment 11-27 (human); experiment: as above
T3 construct: also called peptide No. 8
T3 peptide: SRYRKQMAVKKYLAAVL

[4] = target: T4, amino terminal PACAP38 peptide (amino acids 1-13) (human); experiment: as above
T4 construct: also called N-terminal Peptide; N-terminal PACAP peptide
T4 peptide: HSDGIFTDSYSRY

[5] = target: T5, PACAP38 peptide fragment 6-36 (human); experiment: as above
T5 construct: also called peptide No. 12
T5 peptide: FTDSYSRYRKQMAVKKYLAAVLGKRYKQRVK

[6] = target: T6, PACAP38 peptide fragment 26-33 (human); experiment: SPR (Biacore 3000) solution competition against immobilised PACAP38
T6 construct: also called peptide No. 2
T6 peptide: VLGKRYKQ

[7] = target: T7, PACAP38 peptide fragment 27-38 (human, ends and bridges not checked); experiment: as above
T7 construct: also called peptide No. 6
T7 peptide: LGKRYKQRVKNK

[8] = target: T7, PACAP38 peptide fragment 27-38; experiment: SPR (Biacore 3000), solution competition with the peptide for antibody binding to immobilised full-length PACAP38; % inhibition

B1: mAb2 (antibody, V domains shown)
VH: QSLEESGGGLVQPEGSLTLTCTASGFSFNSSSYMCWVRQAPGKGLEWIGCIFTGSSGNTYYATWAQGRFTISKTSTTVTLEMTSLTAADTATYFCARDRAYFLVGYFYATYYFDLWGPGTLVTVSS
VL: DVVMTQTPSPVSAQVGGTVTINCQASESIDSDLSWYQQKPGQPPKLLIYRTFTLESGVPSRFKGSGSGTDYTLTISDLECADAAIYYCQCTDGSSISGSYGWDAFGGGTEVVVKG
notes: Rabbit monoclonal antibody (SLAM), recombinant; also called monoclonal anti-PACAP antibody 2; 2 (c81)
binding result [1]: no binding (tested: 1:200 molar ratio (Ab:peptide))
binding result [2]: no binding (tested: 1:200 molar ratio (Ab:peptide))
binding result [3]: no binding (tested: 1:200 molar ratio (Ab:peptide))
binding result [4]: no binding (tested: 1:200 molar ratio (Ab:peptide))
binding result [5]: no binding (tested: 1:200 molar ratio (Ab:peptide))

B2: mAb5 (antibody, V domains shown)
VH: QSVEESGGRLVTPGTPLTLTCTVSGFSLSTYNMCWVRQAPGKGLEWVGFINSDDSAYYASWAKGRFTFSKTSTTVDLKIASPTTEDTATYFCARYDWDYYYSRLDLWGPGTLVTVSS
VL: DIVLTQTPASVSAAVGGTVSISCQSSESVYNNNYLSWFQQKPGQPPKLLIYGASTLASGVPSRFEGSGSGTQFTLTISDVQCDDAATYYCLGDYIIIENIFGGGTEVVVKG
notes: Rabbit monoclonal antibody (SLAM), recombinant; also called monoclonal anti-PACAP antibody 5; 5 (c71)
binding result [6]: no binding (tested: 1:200 molar ratio (Ab: peptide fragment))
binding result [7]: no binding (tested: 1:200 molar ratio (Ab: peptide fragment))

B3: mAb6 (antibody, V domains shown)
VH: QLEESGGGLVQPGASLTLTCTTSGFSLSDNYLCWVRQAPGRGLEWVACIGIVLRSTGATYYASWAEGRFTISKTSPTTVTLEMTSLTAADTATYFCALDLGYGGPLWGPGTLVTVSS
VL: AQVLTQTPASVSAAVGGTVTINCQASQSVYNNKNLAWYQQKPGQPPKLLIYFSSTLASGVPSRFRGSGSGTQFTLTISGVQCGDAATYYCLGEFGSIWAFGGGTEVVVKG
notes: Rabbit monoclonal antibody (SLAM), recombinant; also called monoclonal anti-PACAP antibody 6; 6 (c55)
binding result [8]: no binding (tested: 1:200 molar ratio (Ab:peptide))

— patent US20180362643A1 (Amgen, published 2018)
